Measured values as given in the supplement of paper PMC7877785.
± gives the uncertainty stated by the source.

Test: self-splicing fitness, log relative to wild type (ln ratio); higher = more splicing; Tetrahymena group I intron in knt gene, E. coli kanamycin selection, DiMSum; sequences stand for … in CUCUCU…GGAGGGAAAAGUUAUCAGGCAUGCACCUGGUAGCUAGUCUUUAAACCAAUAGAUUGCAUCGGUUUAAAAGGCAAGACCGUCAAAUUGCGGGAAAGGGGUCAACAGCCGUUCAGUACCAAGUCUCAGGGGAAACUUUGAGAUGGCCUUGCAAAGGGUAUGGUAAUAAGCUGACGGACAUGGUCCUAACCACGCAGCCAAGUCCUAAGUCAACAGAUCUUCUGUUGAUAUGGAUGCAGUUCACAGACUAAAUGUCGGUCGGGGAAGAUGUAUUCUUCUCAUAAGAUAUAGUCGGACCUCUCCUUAAUGGGAGCUAGCGGAUGAAGUGAUGCAACACUGGAGCCGCUGGGAACUAAUUUGUAUGCGAAAGUAUAUUGAUUAGUUUUGGAGUACUCGUGGUCG
Method in brief: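 The eight P1ex-region nucleotides of an intron in the knt kanamycin-resistance gene on pET-22b(+) were all randomised and the library put into E. coli BL21(DE3). Six replicate transformations were grown overnight at 37°C or 30°C on LB agar with or without 25 μg/mL kanamycin, together with 100 μg/mL carbenicillin, 50 μM IPTG and 0.2% rhamnose. Colonies were pooled and amplicon-sequenced on an Illumina HiSeq 2500. Fitness from DiMSum is the error-weighted combination of wild-type-normalised replicate fold changes, kanamycin over none.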

Sequence	self-splicing fitness (ln) (30 °C)	self-splicing fitness (ln) (37 °C)
UUCGAGCAAUAUUACGAUGA	-0.824 ± 0.12	-0.0637 ± 0.1
UUCGAGCAAUAUUACGCCAC	–	-1.4 ± 0.46
UUCGAGCAAUAUUACGCCGG	-1.98 ± 0.39	–
UUCGAGCAAUAUUACGGAAU	-3.13 ± 0.18	-2.87 ± 0.27
UUCGAGCAAUAUUACGGAGA	-1.63 ± 0.22	-1.38 ± 0.22
UUCGAGCAAUAUUACGGGAU	-3.04 ± 0.25	-2.05 ± 0.19
UUCGAGCAAUAUUACGGGGC	-2.86 ± 0.27	-1.48 ± 0.4
UUCGAGCAAUAUUACGGUAU	-3.95 ± 0.22	-2.22 ± 0.23
UUCGAGCAAUAUUACGGUCA	-1.71 ± 0.15	-1.26 ± 0.13
UUCGAGCAAUAUUACGGUCG	–	-1.91 ± 0.36
UUCGAGCAAUAUUACGUACU	-2.87 ± 0.42	-2.01 ± 0.36
UUCGAGCAAUAUUACGUGAG	-1.12 ± 0.067	-0.0842 ± 0.11
UUCGAGCAAUAUUACGUUGU	-2.49 ± 0.18	-2.75 ± 0.24
UUCUAGCAAUAUUACGAAAG	–	-2.87 ± 0.32
UUCUAGCAAUAUUACGAGUU	-2.55 ± 0.15	-1.92 ± 0.13
UUCUAGCAAUAUUACGAUAA	-1.46 ± 0.16	-0.147 ± 0.19
UUCUAGCAAUAUUACGAUAC	-2.08 ± 0.38	-2.64 ± 0.41
UUCUAGCAAUAUUACGCCGG	–	-2.05 ± 0.37
UUCUAGCAAUAUUACGCGAU	-1.99 ± 0.22	–
UUCUAGCAAUAUUACGCUCG	-2.13 ± 0.26	-2.09 ± 0.49
UUCUAGCAAUAUUACGGAAU	-4.1 ± 0.39	-1.91 ± 0.33
UUCUAGCAAUAUUACGGCAA	0.293 ± 0.1	0.334 ± 0.11
UUCUAGCAAUAUUACGGCAC	–	-0.626 ± 0.23
UUCUAGCAAUAUUACGGCCC	-1.62 ± 0.41	–
UUCUAGCAAUAUUACGGCGC	-2.84 ± 0.25	-2.7 ± 0.24
UUCUAGCAAUAUUACGGCUC	-1.38 ± 0.14	-0.913 ± 0.2

Sequence	self-splicing fitness (ln) (30 °C)	self-splicing fitness (ln) (37 °C)
UUCUAGCAAUAUUACGGGAG	-2.34 ± 0.19	-1.47 ± 0.19
UUCUAGCAAUAUUACGGUUC	-2.74 ± 0.26	-2.44 ± 0.27
UUCUAGCAAUAUUACGUAGA	-3.73 ± 0.29	-2.19 ± 0.25
UUCUAGCAAUAUUACGUGAU	-1.89 ± 0.18	-1.34 ± 0.21
UUGAAGCAAUAUUACGAAGA	-0.989 ± 0.11	-0.181 ± 0.17
UUGAAGCAAUAUUACGAAUU	-2.73 ± 0.33	-1.3 ± 0.31
UUGAAGCAAUAUUACGAGCU	-1.76 ± 0.16	-1.02 ± 0.19
UUGAAGCAAUAUUACGAGGC	-3.28 ± 0.39	-1.84 ± 0.47
UUGAAGCAAUAUUACGAUGA	0.15 ± 0.075	0.161 ± 0.099
UUGAAGCAAUAUUACGAUUA	0.283 ± 0.096	-0.455 ± 0.096
UUGAAGCAAUAUUACGCAGC	-3.74 ± 0.3	-1.05 ± 0.34
UUGAAGCAAUAUUACGGAUG	0.196 ± 0.1	0.219 ± 0.12
UUGAAGCAAUAUUACGGCAA	0.615 ± 0.092	0.402 ± 0.12
UUGAAGCAAUAUUACGGCAU	-0.14 ± 0.06	1.08 ± 0.08
UUGAAGCAAUAUUACGGCCA	0.0822 ± 0.12	-0.046 ± 0.13
UUGAAGCAAUAUUACGGCGA	0.203 ± 0.088	0.256 ± 0.12
UUGAAGCAAUAUUACGGCUG	0.342 ± 0.12	0.572 ± 0.12
UUGAAGCAAUAUUACGGGAU	-2.63 ± 0.14	-1 ± 0.14
UUGAAGCAAUAUUACGGGCA	0.114 ± 0.11	0.502 ± 0.13
UUGAAGCAAUAUUACGGGCU	-3.02 ± 0.14	-1.16 ± 0.1
UUGAAGCAAUAUUACGGGUG	-0.54 ± 0.048	-0.446 ± 0.066
UUGAAGCAAUAUUACGUCCG	0.0359 ± 0.093	0.4 ± 0.12
UUGAAGCAAUAUUACGUCUG	0.509 ± 0.059	0.84 ± 0.081
UUGAAGCAAUAUUACGUGCA	-0.222 ± 0.068	0.447 ± 0.1
UUGAAGCAAUAUUACGUUCC	–	-2.79 ± 0.35
